Two substances from publication PMC5868266 can be followed below.

Experiment [1] has as its target human C3b (human) (UniProt P01024). The experiment can be described thus: SPR; Biacore T200; biotinylated C3b captured on a neutravidin-coupled CMD-200 chip (eqC3b 3,000 RU, human C3b 4,200 RU); SCIN injected 2 min at 2.5-2,500 nM, dissociation 3 min; 25 °C; 20 mM HEPES pH 7.3, 140 mM NaCl, 0.005% Tween 20; 30 μl/min; triplicate; 1:1 kinetic model (KD = kd/ka).
Experiment [2] addresses equine C3b (horse (endogenous in equine plasma)). The description is as above.
Experiment [3] has as its target equine alternative pathway C3 convertase (eqC3bBb) (horse (endogenous in equine plasma)).
Experiment [4] deals with human C3b (human) (UniProt P01024). The experiment can be described thus: SPR; same injections as a1, steady-state binding model; for SCIN-A on eqC3b the concentrations were subsaturating, so the fit used a constant Rmax based on the eqSCIN/eqC3b interaction.
The target in experiment [5] is equine C3b (horse (endogenous in equine plasma)). The experiment is described as above.
Experiment [6] addresses human C3b (human) (UniProt P01024). The experiment can be described thus: SPR. A general note: In SPR one partner is held on a chip, and binding of the other changes the refractive index at the surface.

In the case of “equine staphylococcal complement inhibitor (eqSCIN) (natural protein)”, the Kd was 0.23 µM in experiment [1], 0.061 µM in experiment [2], 0.3 µM in experiment [4] and 0.22 µM in experiment [5]. The koff was found to be 0.13 s⁻¹ in experiment [1] and 0.11 s⁻¹ in experiment [2]. The kon was 550000 M⁻¹ s⁻¹ in experiment [1] and 1.8e+06 M⁻¹ s⁻¹ in experiment [2]. The substance further showed an inhibition of eqC3 cleavage (α-chain to α′) by fluid-phase eqC3bBb, eqSCIN 0.04-10 μM, densitometry of reducing SDS-PAGE in experiment [3] of 0.61 µM.

With “staphylococcal complement inhibitor SCIN-A (natural protein)”, the values for the Kd in experiment [6], in experiment [4] and in experiment [5] were 0.14 µM, 0.14 µM and 29 µM, respectively. The same substance came in with a koff in experiment [6] of 0.092 s⁻¹. This substance gave a kon in experiment [6] of 630000 M⁻¹ s⁻¹.

By Kd is commonly meant a measure of binding affinity in units of concentration. Low readings indicate higher affinity, high ones lower affinity. A word on the koff: it is the first-order rate constant of dissociation. The low end stands for slow dissociation, the high end for fast dissociation. A word on the kon: it is the second-order rate constant of association. High values mean fast association, low ones slow association.
